Test results taken from patent US20210403601A1 (FAPON BIOTECH, published 2021).
Where a chain is given by its changes, count along the chain named.

B1: WT 1-1 (antibody, V domains shown)
VH: QVQLQQPGAELVKPGASVRLSCQTSVDTFTTYYLYWVKQRPGEGLEWIGGINPTSNPVFDEKFKSKATLTVDTSSSTAYMQLSSLTSVDSAVYYCTRSIVRRGYYPDYWGQGTALTVSS
VL: DIQMTQTTSSLSASLGDRVTISCRGSQDINNYVNWYQQKPDGTIKLLIYFTSRLQSGVPSRFSGSGSGTDYSLTIANLEQEDIATYFCQQDDTIPITWGAGTKVELKR
notes: WT background; CDRs built
B2: WT 1-4 (antibody, V domains shown)
VH: QVQLQQPGAELVKPGASVRLSCQTSVNTFSTYYLYWVKQRPGEGLEWIGGINPTSGGPVFDEKFKSKATLTVDTSSSTAYMQLSSLTSVDSAVYYCTRSVVRRGYYPDYWGQGTALTVSS
VL: B1 VL with N30Q, V33I, Q55H, I94V
notes: WT background; CDRs built
B3: WT 1-2 (antibody, V domains shown)
VH: B1 VH with D27E, T30S, I51L, V100I
VL: B1 VL with N30Q, V33L, V58L, I96L
notes: WT background; CDRs built
B4: WT 1-7 (antibody, V domains shown)
VH: B1 VH with I99L
VL: B1 VL with Q55N, I94L
notes: WT background; CDRs built
B5: WT 1-3 (antibody, V domains shown)
VH: B2 VH with N27E, S30T, I51V, V101L
VL: B1 VL with V33L, Q55H, V58I, I94V, I96V
notes: WT background; CDRs built
B6: WT 1-6 (antibody, V domains shown)
VH: B1 VH with T30S, I51V, I99L, V100L
VL: B1 VL with N30Q, Q55N, V58I, I94L, I96V
notes: WT background; CDRs built
B7: WT 1-8 (antibody, V domains shown)
VH: B1 VH with D27E, T30S, I51L, I99L, V100I
VL: B1 VL with N30Q, V33L, Q55N, V58L, I94L, I96L
notes: WT background; CDRs built
B8: Mutation 1-59 (antibody, V domains shown)
VH: B1 VH with D27N, T30S, L34I, I51L, D60N, I99V, V100I, P106F
VL: B1 VL with G25A, V33I, F50Y, V58L, I94V, I96L, W98F
notes: Mutation 1 background; CDRs built
B9: Mutation 1-53 (antibody, V domains shown)
VH: B1 VH with D27N, T30S, L34I, D60N, I99L, V100I, P106F
VL: B1 VL with G25A, V33I, F50Y, Q55H, V58L, I94L, I96V, W98F
notes: as for B8
B10: Mutation 1-3 (antibody, V domains shown)
VH: B2 VH with N27E, S30T, L34I, I51V, D61N, V101L, P107F
VL: B1 VL with G25A, V33L, F50Y, Q55H, V58I, I94V, I96V, W98F
notes: as for B8
B11: Mutation 1-44 (antibody, V domains shown)
VH: B2 VH with L34I, I51V, D61N, V100L, V101I, P107F
VL: B1 VL with G25A, N30Q, V33L, F50Y, Q55N, V58L, I94L, I96V, W98F
notes: as for B8
B12: Mutation 1-14 (antibody, V domains shown)
VH: B1 VH with D27E, T30S, L34I, I51L, D60N, I99V, V100I, P106F
VL: B1 VL with G25A, N30Q, V33L, F50Y, Q55H, V58L, I94V, I96L, W98F
notes: as for B8
B13: Mutation 1-37 (antibody, V domains shown)
VH: B1 VH with D27E, L34I, I51L, D60N, P106F
VL: B1 VL with G25A, F50Y, Q55H, V58I, W98F
notes: as for B8
B14: Mutation 1-13 (antibody, V domains shown)
VH: B1 VH with L34I, D60N, I99V, P106F
VL: B1 VL with G25A, F50Y, Q55H, I94V, W98F
notes: as for B8
B15: Mutation 1-43 (antibody, V domains shown)
VH: B1 VH with D27E, L34I, I51L, D60N, I99L, P106F
VL: B1 VL with G25A, F50Y, Q55H, V58L, I94L, W98F
notes: as for B8
B16: Mutation 1-35 (antibody, V domains shown)
VH: B1 VH with L34I, I51V, D60N, I99L, V100I, P106F
VL: B1 VL with G25A, V33I, F50Y, Q55N, V58L, I94L, I96V, W98F
notes: as for B8
B17: Mutation 1-11 (antibody, V domains shown)
VH: B2 VH with S30T, L34I, I51L, D61N, V100I, V101I, P107F
VL: B1 VL with G25A, V33I, F50Y, V58L, I96L, W98F
notes: as for B8
B18: Mutation 1-58 (antibody, V domains shown)
VH: B1 VH with D27E, L34I, D60N, I99V, P106F
VL: B1 VL with G25A, N30Q, V33I, F50Y, V58I, I94V, W98F
notes: as for B8
B19: Mutation 1-55 (antibody, V domains shown)
VH: B2 VH with N27D, L34I, I51V, D61N, V100I, P107F
VL: B1 VL with G25A, F50Y, Q55N, V58I, W98F
notes: as for B8
B20: Mutation 1-45 (antibody, V domains shown)
VH: B2 VH with S30T, L34I, D61N, V100I, V101L, P107F
VL: B1 VL with G25A, V33L, F50Y, Q55N, I96L, W98F
notes: as for B8
B21: Mutation 1-41 (antibody, V domains shown)
VH: B1 VH with L34I, I51V, D60N, I99V, V100I, P106F
VL: B1 VL with G25A, V33I, F50Y, Q55N, I94V, I96V, W98F
notes: as for B8
B22: Mutation 1-15 (antibody, V domains shown)
VH: B2 VH with N27E, S30T, L34I, I51V, D61N, V100L, V101L, P107F
VL: B1 VL with G25A, V33L, F50Y, Q55N, V58I, I94L, I96V, W98F
notes: as for B8
B23: Mutation 1-33 (antibody, V domains shown)
VH: B2 VH with N27E, L34I, D61N, V100L, V101L, P107F
VL: B1 VL with G25A, V33L, F50Y, V58L, I94L, I96L, W98F
notes: as for B8
B24: Mutation 1-9 (antibody, V domains shown)
VH: B2 VH with N27E, S30T, L34I, I51V, D61N, V100I, V101L, P107F
VL: B1 VL with G25A, V33L, F50Y, V58I, I96V, W98F
notes: as for B8
B25: Mutation 1-38 (antibody, V domains shown)
VH: B2 VH with L34I, I51V, D61N, V100I, V101I, P107F
VL: B1 VL with G25A, N30Q, V33L, F50Y, Q55N, V58I, I96L, W98F
notes: as for B8
B26: Mutation 1-8 (antibody, V domains shown)
VH: B1 VH with D27E, T30S, L34I, I51L, D60N, I99L, V100I, P106F
VL: B1 VL with G25A, N30Q, V33L, F50Y, Q55N, V58L, I94L, I96L, W98F
notes: as for B8
B27: Mutation 1-51 (antibody, V domains shown)
VH: B2 VH with S30T, L34I, D61N, V100L, V101L, P107F
VL: B1 VL with G25A, V33L, F50Y, Q55H, I94L, I96L, W98F
notes: as for B8
B28: Mutation 1-7 (antibody, V domains shown)
VH: B1 VH with L34I, D60N, I99L, P106F
VL: B1 VL with G25A, F50Y, Q55N, I94L, W98F
notes: as for B8
B29: Mutation 1-56 (antibody, V domains shown)
VH: B2 VH with N27D, S30T, L34I, D61N, V100I, V101I, P107F
VL: B1 VL with G25A, N30Q, V33L, F50Y, Q55N, V58L, I96L, W98F
notes: as for B8
B30: Mutation 1-49 (antibody, V domains shown)
VH: B1 VH with D27E, L34I, I51L, D60N, I99V, P106F
VL: B1 VL with G25A, F50Y, V58I, I94V, W98F
notes: as for B8

biological target: T1, Taq DNA polymerase (Thermus aquaticus, UniProt P19821 1-832); assay: AMC sensor, antibody immobilised
T1 construct: also called Taq enzyme; Taq DNA enzyme
T1 sequence (P19821 whole entry): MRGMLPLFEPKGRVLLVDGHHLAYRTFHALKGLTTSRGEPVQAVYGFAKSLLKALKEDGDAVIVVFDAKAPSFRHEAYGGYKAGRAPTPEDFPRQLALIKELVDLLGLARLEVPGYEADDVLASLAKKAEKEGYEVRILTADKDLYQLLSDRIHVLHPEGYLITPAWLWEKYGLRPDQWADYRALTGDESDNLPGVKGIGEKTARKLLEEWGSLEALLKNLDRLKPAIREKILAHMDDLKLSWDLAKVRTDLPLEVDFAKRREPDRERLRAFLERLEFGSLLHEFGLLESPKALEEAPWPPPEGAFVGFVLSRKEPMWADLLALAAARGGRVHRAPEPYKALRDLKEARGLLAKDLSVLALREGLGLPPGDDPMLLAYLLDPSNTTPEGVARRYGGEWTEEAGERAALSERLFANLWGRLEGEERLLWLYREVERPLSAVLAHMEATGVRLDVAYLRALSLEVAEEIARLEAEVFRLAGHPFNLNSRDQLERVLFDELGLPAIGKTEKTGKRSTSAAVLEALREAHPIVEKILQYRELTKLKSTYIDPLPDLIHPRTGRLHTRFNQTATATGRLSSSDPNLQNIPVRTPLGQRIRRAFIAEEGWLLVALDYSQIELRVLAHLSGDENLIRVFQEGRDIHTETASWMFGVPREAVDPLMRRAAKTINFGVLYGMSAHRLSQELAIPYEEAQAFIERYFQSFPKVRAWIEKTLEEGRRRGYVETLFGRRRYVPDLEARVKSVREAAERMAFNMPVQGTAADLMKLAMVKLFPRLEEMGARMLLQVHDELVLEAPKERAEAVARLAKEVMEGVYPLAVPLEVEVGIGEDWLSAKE

Kd | koff | kon | Binder
4.65 nM | 0.000273 s⁻¹ | 58800 M⁻¹ s⁻¹ | B1
4.1 nM | 0.000362 s⁻¹ | 88400 M⁻¹ s⁻¹ | B2
3.41 nM | 0.000166 s⁻¹ | 48500 M⁻¹ s⁻¹ | B3
3.42 nM | 0.000296 s⁻¹ | 86700 M⁻¹ s⁻¹ | B4
2.3 nM | 0.00011 s⁻¹ | 48000 M⁻¹ s⁻¹ | B5
6.65 nM | 0.000506 s⁻¹ | 76100 M⁻¹ s⁻¹ | B6
3.02 nM | 9.85e-05 s⁻¹ | 32600 M⁻¹ s⁻¹ | B7

biological target: T1, Taq DNA polymerase; assay: AMC sensor, antibody immobilised; remark: another data set of the same source

Kd | koff | kon | Binder
0.0507 nM | 3.06e-06 s⁻¹ | 60400 M⁻¹ s⁻¹ | B8
0.384 nM | 3.8e-05 s⁻¹ | 99000 M⁻¹ s⁻¹ | B9
0.367 nM | 1.54e-05 s⁻¹ | 42000 M⁻¹ s⁻¹ | B10
0.0133 nM | 4.9e-06 s⁻¹ | 369000 M⁻¹ s⁻¹ | B11
0.229 nM | 1.92e-05 s⁻¹ | 84100 M⁻¹ s⁻¹ | B12
0.382 nM | 2.68e-05 s⁻¹ | 70200 M⁻¹ s⁻¹ | B13
0.407 nM | 2.52e-05 s⁻¹ | 61700 M⁻¹ s⁻¹ | B14
0.971 nM | 6.92e-05 s⁻¹ | 71200 M⁻¹ s⁻¹ | B15
0.706 nM | 3.7e-05 s⁻¹ | 52400 M⁻¹ s⁻¹ | B16
0.613 nM | 3.06e-05 s⁻¹ | 50000 M⁻¹ s⁻¹ | B17
0.178 nM | 1.34e-05 s⁻¹ | 75000 M⁻¹ s⁻¹ | B18
0.173 nM | 1.12e-05 s⁻¹ | 64400 M⁻¹ s⁻¹ | B19
0.0582 nM | 3.07e-06 s⁻¹ | 52600 M⁻¹ s⁻¹ | B20
0.297 nM | 9.82e-06 s⁻¹ | 33100 M⁻¹ s⁻¹ | B21
0.12 nM | 5.72e-06 s⁻¹ | 47600 M⁻¹ s⁻¹ | B22
0.926 nM | 3.94e-05 s⁻¹ | 42600 M⁻¹ s⁻¹ | B23
0.926 nM | 7.28e-05 s⁻¹ | 78600 M⁻¹ s⁻¹ | B24
0.106 nM | 3.32e-06 s⁻¹ | 31400 M⁻¹ s⁻¹ | B25
0.0343 nM | 1.64e-06 s⁻¹ | 47600 M⁻¹ s⁻¹ | B26
0.384 nM | 3.77e-05 s⁻¹ | 98300 M⁻¹ s⁻¹ | B27
0.599 nM | 2.45e-05 s⁻¹ | 41000 M⁻¹ s⁻¹ | B28
0.914 nM | 3.79e-05 s⁻¹ | 41500 M⁻¹ s⁻¹ | B29
0.198 nM | 1.71e-05 s⁻¹ | 86100 M⁻¹ s⁻¹ | B30
